T1: IL-23 receptor on the surface of HEK-Blue IL-23 cells (UniProt Q5VWK5 24-629, limits assumed)
T1 sequence (looked up): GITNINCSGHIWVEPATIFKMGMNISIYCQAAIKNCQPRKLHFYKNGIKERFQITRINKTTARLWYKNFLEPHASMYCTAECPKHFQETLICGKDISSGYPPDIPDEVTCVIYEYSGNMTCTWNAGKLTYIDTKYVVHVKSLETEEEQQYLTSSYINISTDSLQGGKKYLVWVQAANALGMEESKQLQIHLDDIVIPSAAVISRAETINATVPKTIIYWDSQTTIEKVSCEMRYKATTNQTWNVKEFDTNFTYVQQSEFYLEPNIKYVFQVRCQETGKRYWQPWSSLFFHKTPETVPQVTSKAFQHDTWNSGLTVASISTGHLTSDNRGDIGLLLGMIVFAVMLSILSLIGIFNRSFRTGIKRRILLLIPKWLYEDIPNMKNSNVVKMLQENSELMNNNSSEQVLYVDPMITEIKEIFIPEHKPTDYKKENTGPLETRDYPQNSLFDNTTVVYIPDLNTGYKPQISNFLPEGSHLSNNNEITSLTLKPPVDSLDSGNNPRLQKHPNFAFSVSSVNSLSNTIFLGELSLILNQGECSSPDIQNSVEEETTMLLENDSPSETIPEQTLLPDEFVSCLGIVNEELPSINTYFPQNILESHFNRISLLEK

B1: Compound of SEQ ID NO: 47 (peptide)
peptide: [Ava]CNT[Trp(7-Me)]K(Ac)C[Yde][2Nal][αMeL]ENH[Sar]-NH2
modifications: lactam N-11; disulfide 2-7
SMILES: CC(=O)NCCCC[C@@H]1NC(=O)[C@H](Cc2c[nH]c3c(C)cccc23)NC(=O)[C@H]([C@@H](C)O)NC(=O)[C@H](CC(N)=O)NC(=O)[C@@H]2CSSC[C@H](NC1=O)C(=O)N[C@@H](Cc1ccc(OCCN(C)C)cc1)C(=O)N[C@@H](Cc1ccc3ccccc3c1)C(=O)N[C@@](C)(CC(C)C)C(=O)N[C@H](C(=O)N[C@@H](CC(N)=O)C(=O)N[C@@H](Cc1c[nH]cn1)C(=O)N(C)CC(N)=O)CCC(=O)NCCCCC(=O)N2
B2: Compound of SEQ ID NO: 5 (peptide)
peptide: XCNTWQCXXXENN
modifications: Apt(§1)-C(@2)-N-T-W-Q-C(@2)-Yae-Nal-Aib-E(§1)-N-N-NH2
B3: Compound of SEQ ID NO: 48 (peptide)
peptide: [Ava]CNT[Trp(7-Me)]K(Ac)C[Yde][2Nal][Aib]ENH[βAla]-NH2
modifications: lactam N-11; disulfide 2-7
SMILES: CC(=O)NCCCC[C@@H]1NC(=O)[C@H](Cc2c[nH]c3c(C)cccc23)NC(=O)[C@H]([C@@H](C)O)NC(=O)[C@H](CC(N)=O)NC(=O)[C@@H]2CSSC[C@H](NC1=O)C(=O)N[C@@H](Cc1ccc(OCCN(C)C)cc1)C(=O)N[C@@H](Cc1ccc3ccccc3c1)C(=O)NC(C)(C)C(=O)N[C@H](C(=O)N[C@@H](CC(N)=O)C(=O)N[C@@H](Cc1c[nH]cn1)C(=O)NCCC(N)=O)CCC(=O)NCCCCC(=O)N2
B4: Compound of SEQ ID NO: 49 (peptide)
peptide: [Ava]CNT[Trp(7-Me)]K(Ac)C[Yde][2Nal][Thp]ENH[βAla]-NH2
modifications: lactam N-11; disulfide 2-7
SMILES: CC(=O)NCCCC[C@@H]1NC(=O)[C@H](Cc2c[nH]c3c(C)cccc23)NC(=O)[C@H]([C@@H](C)O)NC(=O)[C@H](CC(N)=O)NC(=O)[C@@H]2CSSC[C@H](NC1=O)C(=O)N[C@@H](Cc1ccc(OCCN(C)C)cc1)C(=O)N[C@@H](Cc1ccc3ccccc3c1)C(=O)NC1(CCOCC1)C(=O)N[C@H](C(=O)N[C@@H](CC(N)=O)C(=O)N[C@@H](Cc1c[nH]cn1)C(=O)NCCC(N)=O)CCC(=O)NCCCCC(=O)N2
B5: Compound of SEQ ID NO: 46 (peptide)
peptide: [Ava]CNT[Trp(7-Me)]K(Ac)C[Yde][2Nal][Thp]ENH[Sar]-NH2
modifications: lactam N-11; disulfide 2-7
SMILES: CC(=O)NCCCC[C@@H]1NC(=O)[C@H](Cc2c[nH]c3c(C)cccc23)NC(=O)[C@H]([C@@H](C)O)NC(=O)[C@H](CC(N)=O)NC(=O)[C@@H]2CSSC[C@H](NC1=O)C(=O)N[C@@H](Cc1ccc(OCCN(C)C)cc1)C(=O)N[C@@H](Cc1ccc3ccccc3c1)C(=O)NC1(CCOCC1)C(=O)N[C@H](C(=O)N[C@@H](CC(N)=O)C(=O)N[C@@H](Cc1c[nH]cn1)C(=O)N(C)CC(N)=O)CCC(=O)NCCCCC(=O)N2
B6: Compound of SEQ ID NO: 45 (peptide)
peptide: [Ava]CNT[Trp(7-Me)]K(Ac)C[Yde][2Nal][Aib]ENH[Sar]-NH2
modifications: lactam N-11; disulfide 2-7
SMILES: CC(=O)NCCCC[C@@H]1NC(=O)[C@H](Cc2c[nH]c3c(C)cccc23)NC(=O)[C@H]([C@@H](C)O)NC(=O)[C@H](CC(N)=O)NC(=O)[C@@H]2CSSC[C@H](NC1=O)C(=O)N[C@@H](Cc1ccc(OCCN(C)C)cc1)C(=O)N[C@@H](Cc1ccc3ccccc3c1)C(=O)NC(C)(C)C(=O)N[C@H](C(=O)N[C@@H](CC(N)=O)C(=O)N[C@@H](Cc1c[nH]cn1)C(=O)N(C)CC(N)=O)CCC(=O)NCCCCC(=O)N2

Consider 6 molecules from US20260258084A1, “New Peptides as Selective IL-23 Receptor Antagonists” (Sanofi, priority 2022, published 2026).

Starred links: 1 amine or outer side, 2 acyl side, 3 side chain; linkers in the order of their positions; H or OH if unused. Positions of bridges follow the written chain, without caps; N, C: chain ends. Non-standard residues stand in square brackets, D forms with d. Yde = (2S)-2-amino-3-[4-[2-(dimethylamino)ethoxy]phenyl]propanoic acid, CN(C)CCOc1ccc(C[C@H](N[*:1])C(=O)[*:2])cc1; Trp(7-Me) = Cc1cccc2c(C[C@H](N)C(=O)O)c[nH]c12; 2Nal = N[C@@H](Cc1ccc2ccccc2c1)C(=O)O; αMeL = CC(C)C[C@](C)(N)C(=O)O; Thp = NC1(C(=O)O)CCOCC1; Aib = CC(C)(N)C(=O)O; Ava = NCCCCC(=O)O; βAla = NCCC(=O)O; Sar = CNCC(=O)O

This assay addresses T1, IL-23 receptor on the surface of …. As to the kind of experiment: cell-based or functional assay.
For the molecule B1, the “pSTAT3 (nM)” value was found to be 0.57 nM.
In the case of B2 it was 9.66 nM.
In the case of B3 it was 0.6 nM; in that of B4, 1.79 nM.
The same measure for B5: 0.84 nM; for B6: 0.67 nM.
